5 molecules from patent US11485991B2, “Multifunctional recombinant nucleotide dependent glycosyltransferase protein and its method of glycosylation thereof” (Council of Scientific & Industrial Research, priority 2016, dated 2022) can be followed below.

Data set [1] deals with Listeria monocytogenes EGD-e. The data set is described as follows: Agar well diffusion assay of antimicrobial activity of enterocin 96 glycoforms (zone of growth inhibition). It is filed as cell-based. The following applies: 50 μM glycoform in agar wells, BHI agar seeded with Listeria monocytogenes EGD-e, 37° C. for 12 h. As for the experimental part:
The di-glycosylated, mono-glycosylated and un-glycosylated glycoforms corresponding to enterocin 96 (known bacteriocin) peptide sequence are prepared under controlled GT assay conditions and purified using RP-HPLC based method. The lyophilized product glycoforms including glyco-diversified forms are resuspended in 50 mM Tris-Cl, pH 7.5. The culture of Listeria monocytogenes EGD-e is grown in BHI media at 37° C. for 7-8 h. Agar plates are prepared by mixing 25 μL of saturated culture (A600≈1.5) and 100 mL of molten BHI agar (cooled to 40-45° C.) and pouring the mixture into sterile petri plates. The seeded agar plates are allowed to solidify for 30-45 min and agar wells are prepared using a sterile cork borer. 50 μM of all glycoforms including glyco-diversified forms are poured in to the wells and plates are incubated at 37° C. for 12 h. The antimicrobial activity is determined by the presence and absence of zone of growth inhibition.
On the technique in general: Agar diffusion results depend on both activity and mobility in agar.

The subject of data set [2] is synthetic acceptor substrates. The data set is described as follows: In vitro glycosyltransferase (GT) assay of GT-CTH mutants with MS detection of glycosylated product. Type of data set: biochemical. The note with it: purified mutant of GT-CTH, acceptor substrate and UDP-glucose, MS analysis. As for the experimental part:
Purified recombinant nucleotide dependent glycosyltransferase (0.2 μM) is incubated with synthetic acceptor substrates (5 μM) and 100 μM UDP-glucose in a reaction buffer containing 20 mM HEPES, pH 7.5, 50 mM NaCl, 1 mM TCEP and 1 mM MgCl2. The reaction is incubated at 25° C. for 12 h. Each assay reaction was accompanied by control reaction (without enzyme). The reactions are quenched with 5% TFA to pH 2, desalted using ZipTip C18, and vacuum dried and analyzed using mass spectrometry.
Mass spectrometry has been used to detect glycosylation in product of glycosylation assay reactions using Matrix Assisted Laser Desorption Ionization Time of flight mass spectrometry (MALDI-TOF MS) and Liquid chromatography electrospray ionization mass spectrometry (LC/ESI-MS) techniques. MALDI-TOF MS has carried out at AB Sciex 5800 MALDI TOF/TOF and LC/ESI-MS has carried out at 6550 iFunnel QTOF LC/MS (Agilent Technologies) using Zorbax Eclipse plus C8 column (3.0×150 mm, 5μ) of Agilent technologies. For MALDI-TOF analysis and LC-ESI/MS analysis, vacuum dried samples are reconstituted in water and 0.1% formic acid respectively.
Various mutations are introduced in recombinant nucleotide dependent glycosyltransferase (GT-CTH) using side directed mutagenesis (Quick change lightning Mutagenesis kit, Agilent) using GTpET28a plasmid as template. The sequence of mutants is verified through DNA sequencing. The mutated recombinant plasmids are transformed into E. coli Lemo21(DE3) and E. coli BL21(DE3) cells for expression. The over expression, purification and functional analysis of mutants of recombinant nucleotide dependent glycosyltransferase proteins are performed using the above mentioned methods. The list of mutants of recombinant nucleotide dependent glycosyltransferase, created in accordance with present invention identifies D102, R136, W147, D152, A153, D154 residues critical for activity of recombinant nucleotide dependent glycosyltransferase (GT-CTH). Replacement of these residues to alanine results into abolishment of the glycosyltransferase activity.

Ends that are not written are not given here.

Consider “di-glucosylated product: Enterocin 96 peptide (SEQ ID NO: 4) carrying a glucose-glucose disaccharide glycan, made with the recombinant glycosyltransferase (MSKRDCNLMKACCAGQAVTYAIHSLLNRLGGDSSDPAGCNDIVRKYCK; cysteine pairing not given here; also: glucose-glucose disaccharide glycan, site not given here)”, for which the “antimicrobial activity (presence and absence of zone of growth inhibition)” value in data set [1] is on record as “more antimicrobial activity than mono-glucosylated product”.

B1: GT-CTH C87A (protein)
chain: MGYSENFIANDWFNVEVFNKNKYTLTNQENKDVTELWLQILKGLKFPNELKETVSYSKNLKELSLKTHAEVSVCIIAKNEQDSIRKAINSIYEFSDEIIFIDTGSIDSTKKIVKEIASEKVKIFDYTWQDDFSDARNYSIQKASKEWILIIDADEYVSSDELIKLRLLIDMLDRFKFKDSLRVSCAIYQLDNVITHGQSRLFRNNNKIKYYGLIHEELRNNKGLDPIFNVESEITFFHDGYKEILRKEKCERNIRLLAKMLEKEPDNVRWAYLYCRDSFSINSNIDFEKILLPFLIKNMDESISCENILLTNYTHLILFLITKKYIIDGKSSLASKCIEVLEKMLPNSSDVTFYKFLNKQHSLYEQQFEFLKEVIQFRKNNEYDQYSQIGCNLLHYDLLISGLLFDVKSYDYSYQYFLKLDLANYFSELEIPDEYKMLINKYRENESLEHHHHHH
Turning to B1, in data set [2], the “In vitro glycosyltransferase activity status” value is given as “Active”.

B2: GT-CTH D130A (protein)
chain: MGYSENFIANDWFNVEVFNKNKYTLTNQENKDVTELWLQILKGLKFPNELKETVSYSKNLKELSLKTHAEVSVCIIAKNEQDSIRKCINSIYEFSDEIIFIDTGSIDSTKKIVKEIASEKVKIFDYTWQADFSDARNYSIQKASKEWILIIDADEYVSSDELIKLRLLIDMLDRFKFKDSLRVSCAIYQLDNVITHGQSRLFRNNNKIKYYGLIHEELRNNKGLDPIFNVESEITFFHDGYKEILRKEKCERNIRLLAKMLEKEPDNVRWAYLYCRDSFSINSNIDFEKILLPFLIKNMDESISCENILLTNYTHLILFLITKKYIIDGKSSLASKCIEVLEKMLPNSSDVTFYKFLNKQHSLYEQQFEFLKEVIQFRKNNEYDQYSQIGCNLLHYDLLISGLLFDVKSYDYSYQYFLKLDLANYFSELEIPDEYKMLINKYRENESLEHHHHHH
On to B2, for which, in data set [2], the “In vitro glycosyltransferase activity status” value is given as “Active”.

B3: GT-CTH D102A (protein)
chain: MGYSENFIANDWFNVEVFNKNKYTLTNQENKDVTELWLQILKGLKFPNELKETVSYSKNLKELSLKTHAEVSVCIIAKNEQDSIRKCINSIYEFSDEIIFIATGSIDSTKKIVKEIASEKVKIFDYTWQDDFSDARNYSIQKASKEWILIIDADEYVSSDELIKLRLLIDMLDRFKFKDSLRVSCAIYQLDNVITHGQSRLFRNNNKIKYYGLIHEELRNNKGLDPIFNVESEITFFHDGYKEILRKEKCERNIRLLAKMLEKEPDNVRWAYLYCRDSFSINSNIDFEKILLPFLIKNMDESISCENILLTNYTHLILFLITKKYIIDGKSSLASKCIEVLEKMLPNSSDVTFYKFLNKQHSLYEQQFEFLKEVIQFRKNNEYDQYSQIGCNLLHYDLLISGLLFDVKSYDYSYQYFLKLDLANYFSELEIPDEYKMLINKYRENESLEHHHHHH
Take B3: in data set [2], the “In vitro glycosyltransferase activity status” value was “Inactive”.

B4: GT-CTH E97A (protein)
chain: MGYSENFIANDWFNVEVFNKNKYTLTNQENKDVTELWLQILKGLKFPNELKETVSYSKNLKELSLKTHAEVSVCIIAKNEQDSIRKCINSIYEFSDAIIFIDTGSIDSTKKIVKEIASEKVKIFDYTWQDDFSDARNYSIQKASKEWILIIDADEYVSSDELIKLRLLIDMLDRFKFKDSLRVSCAIYQLDNVITHGQSRLFRNNNKIKYYGLIHEELRNNKGLDPIFNVESEITFFHDGYKEILRKEKCERNIRLLAKMLEKEPDNVRWAYLYCRDSFSINSNIDFEKILLPFLIKNMDESISCENILLTNYTHLILFLITKKYIIDGKSSLASKCIEVLEKMLPNSSDVTFYKFLNKQHSLYEQQFEFLKEVIQFRKNNEYDQYSQIGCNLLHYDLLISGLLFDVKSYDYSYQYFLKLDLANYFSELEIPDEYKMLINKYRENESLEHHHHHH
For the molecule B4, in data set [2], the “In vitro glycosyltransferase activity status” value was “Active”.
